Laboratory results as given in patent US20180334493A1 (Takeda / Millennium, published 2018).

Target: T1, C1 esterase (UniProt P09871 16-688, limits assumed)
T1 sequence (looked up): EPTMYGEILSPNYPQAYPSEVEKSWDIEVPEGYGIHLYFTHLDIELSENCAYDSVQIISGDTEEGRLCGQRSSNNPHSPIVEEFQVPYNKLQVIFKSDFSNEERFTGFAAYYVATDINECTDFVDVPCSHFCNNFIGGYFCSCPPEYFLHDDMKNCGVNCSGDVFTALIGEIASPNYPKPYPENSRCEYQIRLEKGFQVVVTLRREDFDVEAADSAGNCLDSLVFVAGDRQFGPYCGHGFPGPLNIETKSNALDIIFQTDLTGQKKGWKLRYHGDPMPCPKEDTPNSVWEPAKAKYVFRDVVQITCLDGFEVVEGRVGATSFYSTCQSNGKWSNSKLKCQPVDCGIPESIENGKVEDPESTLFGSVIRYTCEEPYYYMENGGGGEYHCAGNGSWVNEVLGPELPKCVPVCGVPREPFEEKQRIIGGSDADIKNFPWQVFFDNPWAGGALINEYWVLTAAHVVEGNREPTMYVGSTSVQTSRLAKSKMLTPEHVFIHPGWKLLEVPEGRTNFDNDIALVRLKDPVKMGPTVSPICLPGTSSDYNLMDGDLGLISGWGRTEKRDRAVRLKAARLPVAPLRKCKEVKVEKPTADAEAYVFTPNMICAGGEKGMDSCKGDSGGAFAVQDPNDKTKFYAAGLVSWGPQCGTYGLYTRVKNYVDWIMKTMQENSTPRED
Assay: cell-based or functional assay

- potency relative to the initial development reference standard: 121%
B1: recombinant human C1 esterase inhibitor (rhC1-INH) (other)
chain: NPNATSSSSQDPESLQDRGEGKVATTVISKMLFVEPILEVSSLPTTNSTTNSATKITANTTDEPTTQPTTEPTTQPTIQPTQPTTQLPTDSPTQPTTGSFCPGPVTLCSDLESHSTEAVLGDALVDFSLKLYHAFSAMKKVETNMAFSPFSIASLLTQVLLGAGQNTKTNLESILSYPKDFTCVHQALKGFTTKGVTSVSQIFHSPDLAIRDTFVNASRTLYSSSPRVLSNNSDANLELINTWVAKNTNNKISRLLDSLPSDTRLVLLNAIYLSAKWKTTFDPKKTRMEPFHFKNSVIKVPMMNSKKYPVAHFIDQTLKAKVGQLQLSHNLSLVILVPQNLKHRLEDMEQALSPSVFKAIMEKLEMSKFQPTLLTLPRIKVTTSQDMLSIMEKLEFFDFSYDLNLCGLTEDPDLQVSAMQHQTVLELTETGVEAAAASAISVARTLLVFEVQQPFLFVLWDQQHKFPVFMGRVYDPRA
modifications: heavily N- and O-glycosylated, sialylated (CHO-expressed)
